B1: E3 ubiquitin ligase seven in absentia homolog 1 (Siah1), human, endogenous in human retinal pericytes (hRP) (enzyme)
chain: MSRQTATALPTGTSKCPPSQRVPALTGTTASNNDLASLFECPVCFDYVLPPILQCQSGHLVCSNCRPKLTCCPTCRGPLGSIRNLAMEKVANSVLFPCKYASSGCEITLPHTEKADHEELCEFRPYSCPCPGASCKWQGSLDAVMPHLMHQHKSITTLQGEDIVFLATDINLPGAVDWVMMQSCFGFHFMLVLEKQEKYDGHQQFFAIVQLIGTRKQAENFAYRLELNGHRRRLTWEATPRSIHEGIATAIMNSDCLVFDTSIAQLFAENGNLGINVTISMC
notes: Endogenous protein in lysates of human retinal pericytes, immunoprecipitated with an anti-Siah1 antibody
B2: glyceraldehyde-3-phosphate dehydrogenase (GAPDH), human, endogenous in human retinal pericytes (hRP) (enzyme)
chain: not shown
notes: Endogenous protein in lysates of human retinal pericytes; The proposed model says GAPDH is S-nitrosylated when it associates with Siah1

Legend:
[1] = target: B2; test: co-immunoprecipitation from hRP lysates: IP anti-Siah1, western blot anti-GAPDH
Experimental: (§1) Equal amounts of protein (1000 μg) from each sample were mixed with 10 μg of anti-Siah1 antibody overnight at 4° C. Pierce Protein A/G Magnetic Beads were pre-cleared and added to the antigen sample/antibody mixture at room temperature for 1 hr. Beads were collected with a magnetic stand and eluted using 50 μl 4× SDS-PAGE reducing sample buffer at 100° C. for 10 mins. The immuno-complexes were then subjected to Western blot analysis. Siah1-depleted samples served as controls for total pull down of Siah1 from each lysate.

[2] = target: B1; test: as above
Experimental: as §1

Binder | binding result [1] | fold increase in GAPDH/Siah1 association (high glucose against osmotic control) [2] [fold]
B1 | binds | 
B2 |  | 1.5
